Like-named read-outs stand apart in the source and are kept apart here.
Experiments:
[1] = target: FruR labelled with NT-647 (wild type, for MST) (Faecalibacterium prausnitzii A2-165); test: MST
[2] = target: FruR labelled with NT-647 (wild type, for MST) (Faecalibacterium prausnitzii A2-165); test: MST; remark: listed apart in the source

## HPr2, unlabeled (wild type, for MST) (natural protein)
[1]
  Kd: 448 nM
[2]
  Kd: 1.07 nM

Reference: paper PMC11906611
